Residue numbers refer to the chain shown, from its start.

These results are taken from patent publication US20100229252, “MEGANUCLEASE VARIANTS CLEAVING A DNA TARGET SEQUENCE FROM THE HUMAN HEMOGLOBIN BETA GENE AND USES THEREOF” (CELLECTIS, published 2010).

Assay in all cases: cell_activity; CHO extrachromosomal LacZ assay
Data set [1] concerns the target T1, I-CreI heterodimer HBB8.3_I3 / HBB8.4_B4 (Chlamydomonas reinhardtii, UniProt P05725;P05725 SEQ:1-167,SEQ:1-167).
T1 chain 1: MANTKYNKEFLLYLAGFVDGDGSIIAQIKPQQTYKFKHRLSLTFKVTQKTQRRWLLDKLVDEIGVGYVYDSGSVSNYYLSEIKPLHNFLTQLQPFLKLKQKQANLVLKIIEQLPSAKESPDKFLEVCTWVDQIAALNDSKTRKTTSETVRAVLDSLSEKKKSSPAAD
T1 chain 2: T1 chain 1 with G20S, Q31N, T33S, Y34T, S41Q, K45D, L55F, Y69A, N76K, Y78R

The target in data set [2] is T2, I-CreI heterodimer HBB8.3_K3 / HBB8.4_B4 (Chlamydomonas reinhardtii, UniProt P05725;P05725 SEQ:1-167,SEQ:1-167).
T2 chain 1: T1 chain 1 with G20S, L55F, Y78I
T2 chain 2: T1 chain 1 with G20S, Q31N, T33S, Y34T, S41Q, K45D, L55F, Y69A, N76K, Y78R

The target of data set [3] is T3, I-CreI heterodimer HBB8.3_I3 / HBB8.4_C4 (Chlamydomonas reinhardtii, UniProt P05725;P05725 SEQ:1-167,SEQ:1-167).
T3 chain 1: T1 chain 1
T3 chain 2: T1 chain 1 with G20S, Q31N, T33S, Y34V, S41Q, K45D, L55F, Y69A, N76K, Y78R

For data set [4], the target named is T4, I-CreI heterodimer HBB8.3_I3 / HBB8.4_D4 (Chlamydomonas reinhardtii, UniProt P05725;P05725 SEQ:1-167,SEQ:1-167).
T4 chain 1: T1 chain 1
T4 chain 2: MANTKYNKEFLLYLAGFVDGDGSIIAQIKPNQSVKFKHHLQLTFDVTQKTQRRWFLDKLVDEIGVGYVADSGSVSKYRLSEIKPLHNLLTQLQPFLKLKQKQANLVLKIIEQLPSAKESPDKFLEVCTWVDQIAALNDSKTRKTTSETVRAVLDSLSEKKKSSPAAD

For data set [5], the target named is T5, I-CreI heterodimer HBB8.3_E3 / HBB8.4_A4 (Chlamydomonas reinhardtii, UniProt P05725;P05725 SEQ:1-167,SEQ:1-167).
T5 chain 1: T1 chain 1 with G20S, L55F, V65I
T5 chain 2: T4 chain 2 with Q132R

The target of data set [6] is T6, I-CreI heterodimer HBB8.3_D3 / HBB8.4_D4 (Chlamydomonas reinhardtii, UniProt P05725;P05725 SEQ:1-167,SEQ:1-167).
T6 chain 1: T1 chain 1 with G20S, Q31N, T33S, Y34G, R39K, L55F, E118G
T6 chain 2: T4 chain 2

For data set [7], the target named is T7, I-CreI heterodimer HBB8.3_I3 / HBB8.4_A4 (Chlamydomonas reinhardtii, UniProt P05725;P05725 SEQ:1-167,SEQ:1-167).
T7 chain 1: T1 chain 1
T7 chain 2: T4 chain 2 with Q132R

The target in data set [8] is T8, I-CreI heterodimer HBB8.3_C3 / HBB8.4_C4 (Chlamydomonas reinhardtii, UniProt P05725;P05725 SEQ:1-167,SEQ:1-167).
T8 chain 1: T1 chain 1 with Q31N, T33S, Y34G, R39K, L55F, I133V
T8 chain 2: T4 chain 2 with G20S, H39R, L88F

Data set [9] concerns the target T9, I-CreI heterodimer HBB8.3_L3 / HBB8.4_A4 (Chlamydomonas reinhardtii, UniProt P05725;P05725 SEQ:1-167,SEQ:1-167).
T9 chain 1: T1 chain 1 with G20S, L55F, Y78Q
T9 chain 2: T4 chain 2 with Q132R

B1: HBB8 (dsDNA)
DNA 1: CTGACTCCTGTGGAGAAGTCTG
DNA 2: CAGACTTCTCCACAGGAGTCAG
Consider B1, for which the activity in data set [1] was 2.26 absorbance units; in [2] it was 2.06 absorbance units; in data set [3], 2.42 absorbance units; in data set [4] it was 1.57 absorbance units; in data set [5], 2.52 absorbance units; in [6], 2 absorbance units. The activity in [7] was 1.15 absorbance units; in data set [8], 2.62 absorbance units; in data set [9] it was 2.32 absorbance units.

B2: HBB6 (dsDNA)
DNA 1: CTGACTCCTGAGGAGAAGTCTG
DNA 2: CAGACTTCTCCTCAGGAGTCAG
For B2, the activity was determined as 1.88 absorbance units in data set [1]; 1.57 absorbance units in [2]; 2.36 absorbance units in data set [3]; 0.12 absorbance units in [4]; 2.04 absorbance units in data set [5]; 1.09 absorbance units in data set [6]. In addition, the results for the activity in data set [7], in [8] and in data set [9] were 0.45 absorbance units, 1.87 absorbance units and 1.96 absorbance units, respectively.
